From patent US20210052637A1 (CONSIGLI NAZIONALE DELLE RICERCHE, published 2021) come the findings set out here.

The target of this test is T1, folate receptor Frα (UniProt P15328 25-234, limits assumed).
T1 construct: whole, on cells; also called α-FR; folate receptor alpha
The test can be described thus: flow cytometry on IGROV-1, KB and A431-tFR cells; 0.025 mg/mL antibody fragment on nanocubes, 4° C., 1 hour; detected with anti-myc primary antibody and Alexa-488 secondary antibody. Here is the method: The A431-tFR and A431-MOCK cells provided by the IRCSS Foundation, National Cancer Institute, Milan, Italy, were grown in the modified Dulbecco culture medium (DMEM, Merck, Kenilworth, USA). IGROV-1 cells (ATCC, UK) were cultured in RPMI-1640 (RPMI-1640, Merck, Kenilworth, USA). The KB cells (ATCC, UK) were cultured in RPMI-1640 without folic acid (RPMI-1640 without folic acid, Merck, Kenilworth, USA). All culture media were added with 10% inactivated fetal bovine serum (FBS), 1% penicillin-streptomycin and 1% glutamine at 37° C., 95% humidity with 5% CO2. The cells were divided every 3-4 days before reaching confluence.
In these experiments, the functionalized nanocubes of the invention comprising the antibody fragment in a quantity of 0.025 mg/mL were incubated in PBS at 4° C. for 1 hour with 5×10⁵ cells of the cell lines indicated above. As a negative control, the non-functionalised nanocubes with polymer coating were used. Then, after three washes, the cells were incubated for 1 hour at 4° C. with the primary antibody that binds to the myc sequence of the C4 antibody fragment. Following a wash in PBS a secondary antibody conjugated to the fluorescent probe Alexa-488 was added to the cells, capable of binding the Fc portion of the primary antibody.
On the technique in general: A flow cytometer gives signals particle by particle.

T1 sequence (P15328 25-234 limits assumed): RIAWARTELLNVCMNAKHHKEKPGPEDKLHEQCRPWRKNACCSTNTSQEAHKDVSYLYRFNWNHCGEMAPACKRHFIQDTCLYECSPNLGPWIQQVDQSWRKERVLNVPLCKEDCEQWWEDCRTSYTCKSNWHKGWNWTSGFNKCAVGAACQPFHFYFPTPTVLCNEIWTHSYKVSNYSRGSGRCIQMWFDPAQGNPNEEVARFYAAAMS

B1: single chain variable fragment of human antibody C4 (C4 scFv), attached to iron oxide nanocubes (scFv)
scFv: NVQLVESGGGLVQPGRSLRLSCTTSGFTFGDYAMIWARQAPGKGLEWVSSISSSSSYIYYADSVKGRFTISRDNAKNSLYLQMNSLRAEDTAVYYCARERYDFWSGMDVWGKGTTVTVSSGGGGSGGGGSGGSAQSALTQPASVSGSPGQSITISCTGTSSDVGSYNLVSWYQQHPGKAPKLMIYEGSKRPSGVSNRFSGSKSGNAASLTISGLQAEDEADYYCQSYDSSLSVVFGGGTKLTVLGAAAHHHHHHGAAEQ
modifications: histidine tag complexed to Ni2+ of PEG-NTA-Ni linker on the polymer-coated iron oxide nanocube
notes: In the assays the scFv was not free; It was held on polymer-coated cubic iron oxide nanoparticles through its histidine tag and PEG-NTA-Ni, with or without PEG-oxaliplatin; also called scFvC4; C4 antibody fragment
Turning to B1, the binding result is given as “binds”.
